A word on the Kd: it is the free concentration of one partner at which half of the binding sites on the other are occupied at equilibrium, for simple one-to-one binding.

This note sets out measurements from publication PMC10936184.

For the experiment, the target named is MipA-His6 (Pseudomonas aeruginosa). In words: nano-DSF; isothermal analysis with FoldAffinity: MipA-His6 (5 µM) incubated for 2 h at room temperature with PMB or PME from 76 nM up to 2.5 mM; one site model; fits at 51°C, 52°C and 53°C. Background: In DSF a fluorescence change marks the thermal transition of the protein.

polymyxin E (peptide): the dissociation constant Kd was 2.8 to 3.4 µM.
Substance polymyxin B (peptide) returned a dissociation constant Kd of 8.4 to 10 µM.
